Usually pKa stands for the pH at which an ionisable group is half protonated.

Results on three substances are retold here after paper PMC8161422.

Data set [1] concerns the target alpha-synuclein 5Q mutant E114Q;E123Q;E126Q;E137Q;E139Q (UniProt P37840). As to the kind of experiment: pH electrode (Orion Star A211 meter, Orion ROSS combination micro electrode) before and after fibril formation; closed-system proton balance. Conditions: fibril formation at 37 °C, temperature of the pH reading not stated, no added salt (pure water; protein and its counter-ions only), none (Milli-Q water; the protein is the only buffer).

The target of another data set is His50 (UniProt position 50, KEGVVHGVATV). As to the kind of experiment: NMR. Conditions: No added salt is implied by the Table 1 footnote 'in absence of salt'. Ionic strength is otherwise not stated.; 20 mM sodium phosphate buffer, pH 7 (as described in this article); protein 250 µM; free monomer, intrinsically disordered, no fibrils; cited from earlier work.
The target in data set [2] is alpha-synuclein, wild type (UniProt P37840). The experiment in a line: NMR pH titration (quoted from Croke et al. 2011, ref 30). The conditions noted are these: 20 mM sodium phosphate buffer, pH 7 (so in the source); cited from earlier work.
Data set [3] has the same target. As to the kind of experiment: NMR pH titration (quoted from Croke et al. 2011, ref 30); Asp and Glu values averaged by the present authors. The conditions noted are these: in absence of salt (Table 1 footnote d), not stated for the Asp/Glu values ('in buffer'); cited from earlier work.
For data set [4] the target is unchanged. The experiment in a line: pH electrode (Orion Star A211 meter, Orion ROSS combination micro electrode) before and after fibril formation; closed-system proton balance. Conditions: fibril formation at 37 °C, temperature of the pH reading not stated, no added salt (pure water; protein and its counter-ions only), none (Milli-Q water; the protein is the only buffer).

On to “alpha-synuclein 5Q mutant E114Q;E123Q;E126Q;E137Q;E139Q”, for which the “change of sample pH on fibril formation” value in data set [1] (pH 6.4-6.6) is on record as “pH increases by only 0.2 units, from pH 6.4 (monomer) to pH 6.6 (fibrils), 20 uM in water”. Moreover, in data set [1] (pH 6.6), the apparent pKa(ave) of acidic groups in fibrils, average over the remaining acidic groups (five fewer than wild type) of the 5Q mutant worked out at 4.7 pH units.
As to alpha-synuclein (Homo sapiens), the pKa with His50 is reported as 6.78.
For the substance alpha-synuclein, wild type, in data set [2], the pKa, His50 of alpha-synuclein (monomer) is 6.78 pH units. Moreover, in data set [3], the pKa in C-terminal tail of α-synuclein (Asp), average of Asp residues in the C-terminal tail of monomeric alpha-synuclein is 4.2 pH units; the pKa in C-terminal tail of α-synuclein (Glu), average of Glu residues in the C-terminal tail of monomeric alpha-synuclein is 4.6 pH units; the pKa in N-terminal and NAC region of α-synuclein (Asp), average of Asp residues in the N-terminal and NAC regions (first 100 residues) of monomeric alpha-synuclein was 3.6 pH units; the pKa in N-terminal and NAC region of α-synuclein (Glu), average of Glu residues in the N-terminal and NAC regions (first 100 residues) of monomeric alpha-synuclein is 4.2 pH units. In data set [3], the pKa in full length α-synuclein monomer (Asp), average of all Asp residues of monomeric alpha-synuclein was 4 pH units and the pKa in full length α-synuclein monomer (Glu), average of all Glu residues of monomeric alpha-synuclein was 4.4 pH units. Moreover, in data set [4] (pH 5.6-6.5), the “change of sample pH on fibril formation” value is given as “pH increases by 0.9 units, from pH 5.6 (monomer) to pH 6.5 (fibrils), 20 uM in water” and the “protons taken up per monomer during fibril formation” value is given as “about 2 protons per monomer”. Also, in data set [4] (pH 6.5), the apparent pKa(ave) of acidic groups in fibrils, average over all acidic groups (Asp, Glu and the C-terminus) of alpha-synuclein came to 5.4 pH units.
